Substrate: C[C@H](N)C(=O)N1CCC[C@H]1C(=O)Nc1ccc2c(C(F)(F)F)cc(=O)oc2c1
Experiment: purified protein, by the assay type
Settings: other: substrate of DP-IV assay
Method: All compounds were tested in vitro against pure human DP-IV (purchased from M & E, Copenhagen, Denmark). […] Ki values were determined using Dixon plots.

B1: pure human DP-IV (Homo sapiens) (protein)
chain: MKTPWKVLLGLLGAAALVTIITVPVVLLNKGTDDATADSRKTYTLTDYLKNTYRLKLYSLRWISDHEYLYKQENNILVFNAEYGNSSVFLENSTFDEFGHSINDYSISPDGQFILLEYNYVKQWRHSYTASYDIYDLNKRQLITEERIPNNTQWVTWSPVGHKLAYVWNNDIYVKIEPNLPSYRITWTGKEDIIYNGITDWVYEEEVFSAYSALWWSPNGTFLAYAQFNDTEVPLIEYSFYSDESLQYPKTVRVPYPKAGAVNPTVKFFVVNTDSLSSVTNATSIQITAPASMLIGDHYLCDVTWATQERISLQWLRRIQNYSVMDICDYDESSGRWNCLVARQHIEMSTTGWVGRFRPSEPHFTLDGNSFYKIISNEEGYRHICYFQIDKKDCTFITKGTWEVIGIEALTSDYLYYISNEYKGMPGGRNLYKIQLSDYTKVTCLSCELNPERCQYYSVSFSKEAKYYQLRCSGPGLPLYTLHSSVNDKGLRVLEDNSALDKMLQNVQMPSKKLDFIILNETKFWYQMILPPHFDKSKKYPLLLDVYAGPCSQKADTVFRLNWATYLASTENIIVASFDGRGSGYQGDKIMHAINRRLGTFEVEDQIEAARQFSKMGFVDNKRIAIWGWSYGGYVTSMVLGSGSGVFKCGIAVAPVSRWEYYDSVYTERYMGLPTPEDNLDHYRNSTVMSRAENFKQVEYLLIHGTADDNVHFQQSAQISKALVDVGVDFQAMWYTDEDHGIASSTAHQHIYTHMSHFIKQCFSLP
**Q.** How did the Km turn out when B1 was run?
**A.** Its Km is 0.8 µM.

Source: US5939560A, “Inhibitors of DP-mediated processes, compositions and therapeutic methods thereof” (Ferring B.V., priority 1993, dated 1999)
